These results are taken from patent US20230272029A1, “CO-AGONISTS AT GLP-1 AND GIP RECEPTORS SUITABLE FOR ORAL DELIVERY” (Novo Nordisk A/S, priority 2020, published 2023).

Starred links: 1 amine or outer side, 2 acyl side, 3 side chain; linkers in the order of their positions; H or OH if unused. Non-standard residues stand in square brackets, D forms with d. Groups on a side chain read outwards from the residue. No end group written: not given here. *: point of attachment. C18 diacid = O=C(O)CCCCCCCCCCCCCCCCC(=O)*; C16 diacid = O=C(O)CCCCCCCCCCCCCCC(=O)*; γGlu = O=C(O)[C@H](CCC(=O)[*:2])N[*:1]; εLys = N[C@@H](CCCCN[*:1])C(=O)[*:2]; AEEA = NCCOCCOCC(=O)O; Aib = CC(C)(N)C(=O)O

One assay concerns the target human GLP-1 receptor (human, UniProt P43220 24-463). The assay can be described thus: cell-based or functional assay.
The next assay has as its target T1, human GIP receptor (human, UniProt P48546 22-466).
T1 sequence (looked up): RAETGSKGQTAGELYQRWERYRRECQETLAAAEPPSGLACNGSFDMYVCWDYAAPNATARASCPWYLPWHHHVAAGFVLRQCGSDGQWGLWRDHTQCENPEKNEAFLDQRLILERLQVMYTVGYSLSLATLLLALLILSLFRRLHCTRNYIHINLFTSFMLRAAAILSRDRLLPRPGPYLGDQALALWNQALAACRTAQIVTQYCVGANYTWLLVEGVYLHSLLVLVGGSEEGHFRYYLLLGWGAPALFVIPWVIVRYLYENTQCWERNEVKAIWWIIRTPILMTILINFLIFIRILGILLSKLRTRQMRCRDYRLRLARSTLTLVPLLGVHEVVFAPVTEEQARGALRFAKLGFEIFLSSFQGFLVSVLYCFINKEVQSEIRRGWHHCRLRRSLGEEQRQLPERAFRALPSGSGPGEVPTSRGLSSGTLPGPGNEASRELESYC
The assay can be described thus: cell-based or functional assay.

B1: Compound No. 47 (peptide)
peptide: Y[Aib]EGTFTSDYSILLEEQAAREFIEWLLAGGPSKGAPPPS-OH
modifications: not fully specified (residue 33)
As to B1, in the assay with human GLP-1 receptor, the “hGLP-1R, CRE Luc 0% HSA EC50 (pM)” value turned out to be 2.1 pM and the “hGLP-1R, CRE Luc 1% HSA EC50 (pM)” value was found to be 154 pM. In addition, in the assay with human GIP receptor, the “hGIPR, CRE Luc 0% HSA EC50 (pM)” value worked out at 3.1 pM and the “hGIPR, CRE Luc 1% HSA EC50 (pM)” value is 156 pM.

B2: Compound No. 6 (peptide)
peptide: Y[Aib]EGTFTSDYSIYLEK([εLys-εLys-γGlu-C18 diacid])QAAREFVNWLLAGGPSSGAPPPS-NH2
modifications: N-terminus assumed
SMILES: CC[C@H](C)[C@H](NC(=O)[C@H](CO)NC(=O)[C@H](Cc1ccc(O)cc1)NC(=O)[C@H](CC(=O)O)NC(=O)[C@H](CO)NC(=O)[C@@H](NC(=O)[C@H](Cc1ccccc1)NC(=O)[C@@H](NC(=O)CNC(=O)[C@H](CCC(=O)O)NC(=O)C(C)(C)NC(=O)[C@@H](N)Cc1ccc(O)cc1)[C@@H](C)O)[C@@H](C)O)C(=O)N[C@@H](Cc1ccc(O)cc1)C(=O)N[C@@H](CC(C)C)C(=O)N[C@@H](CCC(=O)O)C(=O)N[C@@H](CCCCNC(=O)[C@@H](N)CCCCNC(=O)[C@@H](N)CCCCNC(=O)CC[C@H](NC(=O)CCCCCCCCCCCCCCCCC(=O)O)C(=O)O)C(=O)N[C@@H](CCC(N)=O)C(=O)N[C@@H](C)C(=O)N[C@@H](C)C(=O)N[C@@H](CCCNC(=N)N)C(=O)N[C@@H](CCC(=O)O)C(=O)N[C@@H](Cc1ccccc1)C(=O)N[C@H](C(=O)N[C@@H](CC(N)=O)C(=O)N[C@@H](Cc1c[nH]c2ccccc12)C(=O)N[C@@H](CC(C)C)C(=O)N[C@@H](CC(C)C)C(=O)N[C@@H](C)C(=O)NCC(=O)NCC(=O)N1CCC[C@H]1C(=O)N[C@@H](CO)C(=O)N[C@@H](CO)C(=O)NCC(=O)N[C@@H](C)C(=O)N1CCC[C@H]1C(=O)N1CCC[C@H]1C(=O)N1CCC[C@H]1C(=O)N[C@@H](CO)C(N)=O)C(C)C
Take B2: in the assay with human GLP-1 receptor, the “hGLP-1R, CRE Luc 0% HSA EC50 (pM)” value was 3.4 pM and the “hGLP-1R, CRE Luc 1% HSA EC50 (pM)” value was 243 pM. In the assay with human GIP receptor, the “hGIPR, CRE Luc 0% HSA EC50 (pM)” value turned out to be 18.5 pM and the “hGIPR, CRE Luc 1% HSA EC50 (pM)” value was determined as 434 pM.

B3: Compound No. 46 (peptide)
peptide: Y[Aib]EGTFTSDYSILLEEQAAREFIEWLLAGGPSK([εLys-εLys-γGlu-C16 diacid])GAPPPS-OH
For B3, in the assay with human GLP-1 receptor, the “hGLP-1R, CRE Luc 0% HSA EC50 (pM)” value is 1.5 pM and the “hGLP-1R, CRE Luc 1% HSA EC50 (pM)” value came to 111 pM. In addition, in the assay with human GIP receptor, the “hGIPR, CRE Luc 0% HSA EC50 (pM)” value turned out to be 1.8 pM and the “hGIPR, CRE Luc 1% HSA EC50 (pM)” value was found to be 97 pM.

B4: Compound No. 35 (peptide)
peptide: Y[Aib]EGTFTSDYSILLEK([AEEA-AEEA-γGlu-C18 diacid])QAAREFINWLLAGGPSSGAPPPS-OH
For B4, in the assay with human GLP-1 receptor, the “hGLP-1R, CRE Luc 0% HSA EC50 (pM)” value stood at 3 pM and the “hGLP-1R, CRE Luc 1% HSA EC50 (pM)” value amounted to 413 pM. Moreover, in the assay with human GIP receptor, the “hGIPR, CRE Luc 0% HSA EC50 (pM)” value turned out to be 5.2 pM and the “hGIPR, CRE Luc 1% HSA EC50 (pM)” value came to 303 pM.

B5: Compound No. 36 (peptide)
peptide: Y[Aib]EGTFTSDYSIILEK([AEEA-AEEA-γGlu-C18 diacid])QAAREFINWLLAGGPSSGAPPPS-OH
modifications: N-terminus assumed
SMILES: CC[C@H](C)[C@H](NC(=O)[C@H](Cc1ccccc1)NC(=O)[C@H](CCC(=O)O)NC(=O)[C@H](CCCNC(=N)N)NC(=O)[C@H](C)NC(=O)[C@H](C)NC(=O)[C@H](CCC(N)=O)NC(=O)[C@H](CCCCNC(=O)COCCOCCNC(=O)COCCOCCNC(=O)CC[C@H](NC(=O)CCCCCCCCCCCCCCCCC(=O)O)C(=O)O)NC(=O)[C@H](CCC(=O)O)NC(=O)[C@H](CC(C)C)NC(=O)[C@@H](NC(=O)[C@@H](NC(=O)[C@H](CO)NC(=O)[C@H](Cc1ccc(O)cc1)NC(=O)[C@H](CC(=O)O)NC(=O)[C@H](CO)NC(=O)[C@@H](NC(=O)[C@H](Cc1ccccc1)NC(=O)[C@@H](NC(=O)CNC(=O)[C@H](CCC(=O)O)NC(=O)C(C)(C)NC(=O)[C@@H](N)Cc1ccc(O)cc1)[C@@H](C)O)[C@@H](C)O)[C@@H](C)CC)[C@@H](C)CC)C(=O)N[C@@H](CC(N)=O)C(=O)N[C@@H](Cc1c[nH]c2ccccc12)C(=O)N[C@@H](CC(C)C)C(=O)N[C@@H](CC(C)C)C(=O)N[C@@H](C)C(=O)NCC(=O)NCC(=O)N1CCC[C@H]1C(=O)N[C@@H](CO)C(=O)N[C@@H](CO)C(=O)NCC(=O)N[C@@H](C)C(=O)N1CCC[C@H]1C(=O)N1CCC[C@H]1C(=O)N1CCC[C@H]1C(=O)N[C@@H](CO)C(=O)O
For the molecule B5, in the assay with human GLP-1 receptor, the “hGLP-1R, CRE Luc 0% HSA EC50 (pM)” value was 4.7 pM and the “hGLP-1R, CRE Luc 1% HSA EC50 (pM)” value was 414 pM. Moreover, in the assay with human GIP receptor, the “hGIPR, CRE Luc 0% HSA EC50 (pM)” value amounted to 5.5 pM and the “hGIPR, CRE Luc 1% HSA EC50 (pM)” value stood at 356 pM.

B6: Compound No. 45 (peptide)
peptide: Y[Aib]EGTFTSDYSILLEEQAAREFIEWLLAGGPSK([AEEA-AEEA-γGlu-C18 diacid])GAPPPS-OH
Take B6: in the assay with human GLP-1 receptor, the “hGLP-1R, CRE Luc 0% HSA EC50 (pM)” value turned out to be 3.9 pM and the “hGLP-1R, CRE Luc 1% HSA EC50 (pM)” value is 1580 pM. Moreover, in the assay with human GIP receptor, the “hGIPR, CRE Luc 0% HSA EC50 (pM)” value turned out to be 3.8 pM and the “hGIPR, CRE Luc 1% HSA EC50 (pM)” value stood at 1220 pM.

B7: Compound No. 4 (peptide)
peptide: Y[Aib]EGTFTSDYSYYLEK([εLys-εLys-γGlu-C18 diacid])QAAQAFVNWLLAGGPSSGAPPPS-NH2
modifications: N-terminus assumed
SMILES: CC(C)C[C@H](NC(=O)[C@H](CC(C)C)NC(=O)[C@H](Cc1c[nH]c2ccccc12)NC(=O)[C@H](CC(N)=O)NC(=O)[C@@H](NC(=O)[C@H](Cc1ccccc1)NC(=O)[C@H](C)NC(=O)[C@H](CCC(N)=O)NC(=O)[C@H](C)NC(=O)[C@H](C)NC(=O)[C@H](CCC(N)=O)NC(=O)[C@H](CCCCNC(=O)[C@@H](N)CCCCNC(=O)[C@@H](N)CCCCNC(=O)CC[C@H](NC(=O)CCCCCCCCCCCCCCCCC(=O)O)C(=O)O)NC(=O)[C@H](CCC(=O)O)NC(=O)[C@H](CC(C)C)NC(=O)[C@H](Cc1ccc(O)cc1)NC(=O)[C@H](Cc1ccc(O)cc1)NC(=O)[C@H](CO)NC(=O)[C@H](Cc1ccc(O)cc1)NC(=O)[C@H](CC(=O)O)NC(=O)[C@H](CO)NC(=O)[C@@H](NC(=O)[C@H](Cc1ccccc1)NC(=O)[C@@H](NC(=O)CNC(=O)[C@H](CCC(=O)O)NC(=O)C(C)(C)NC(=O)[C@@H](N)Cc1ccc(O)cc1)[C@@H](C)O)[C@@H](C)O)C(C)C)C(=O)N[C@@H](C)C(=O)NCC(=O)NCC(=O)N1CCC[C@H]1C(=O)N[C@@H](CO)C(=O)N[C@@H](CO)C(=O)NCC(=O)N[C@@H](C)C(=O)N1CCC[C@H]1C(=O)N1CCC[C@H]1C(=O)N1CCC[C@H]1C(=O)N[C@@H](CO)C(N)=O
Regarding B7, in the assay with human GLP-1 receptor, the “hGLP-1R, CRE Luc 0% HSA EC50 (pM)” value was 6.6 pM and the “hGLP-1R, CRE Luc 1% HSA EC50 (pM)” value worked out at 484 pM. Further, in the assay with human GIP receptor, the “hGIPR, CRE Luc 0% HSA EC50 (pM)” value was determined as 8.5 pM and the “hGIPR, CRE Luc 1% HSA EC50 (pM)” value amounted to 294 pM.

B8: Compound No. 5 (peptide)
peptide: Y[Aib]EGTFTSDYSYYLEK([εLys-εLys-γGlu-C18 diacid])QAAQAFVNWLLAGGPSSGAPPPS-OH
modifications: N-terminus assumed
SMILES: CC(C)C[C@H](NC(=O)[C@H](CC(C)C)NC(=O)[C@H](Cc1c[nH]c2ccccc12)NC(=O)[C@H](CC(N)=O)NC(=O)[C@@H](NC(=O)[C@H](Cc1ccccc1)NC(=O)[C@H](C)NC(=O)[C@H](CCC(N)=O)NC(=O)[C@H](C)NC(=O)[C@H](C)NC(=O)[C@H](CCC(N)=O)NC(=O)[C@H](CCCCNC(=O)[C@@H](N)CCCCNC(=O)[C@@H](N)CCCCNC(=O)CC[C@H](NC(=O)CCCCCCCCCCCCCCCCC(=O)O)C(=O)O)NC(=O)[C@H](CCC(=O)O)NC(=O)[C@H](CC(C)C)NC(=O)[C@H](Cc1ccc(O)cc1)NC(=O)[C@H](Cc1ccc(O)cc1)NC(=O)[C@H](CO)NC(=O)[C@H](Cc1ccc(O)cc1)NC(=O)[C@H](CC(=O)O)NC(=O)[C@H](CO)NC(=O)[C@@H](NC(=O)[C@H](Cc1ccccc1)NC(=O)[C@@H](NC(=O)CNC(=O)[C@H](CCC(=O)O)NC(=O)C(C)(C)NC(=O)[C@@H](N)Cc1ccc(O)cc1)[C@@H](C)O)[C@@H](C)O)C(C)C)C(=O)N[C@@H](C)C(=O)NCC(=O)NCC(=O)N1CCC[C@H]1C(=O)N[C@@H](CO)C(=O)N[C@@H](CO)C(=O)NCC(=O)N[C@@H](C)C(=O)N1CCC[C@H]1C(=O)N1CCC[C@H]1C(=O)N1CCC[C@H]1C(=O)N[C@@H](CO)C(=O)O
Take B8: in the assay with human GLP-1 receptor, the “hGLP-1R, CRE Luc 0% HSA EC50 (pM)” value is 9.4 pM and the “hGLP-1R, CRE Luc 1% HSA EC50 (pM)” value is 625 pM. In the assay with human GIP receptor, the “hGIPR, CRE Luc 0% HSA EC50 (pM)” value is 14.2 pM and the “hGIPR, CRE Luc 1% HSA EC50 (pM)” value worked out at 362 pM.
